Experimental data reported in the supplement of paper PMC9732359.
± gives the uncertainty stated by the source.

Assay: protein stability index of a GFP-peptide fusion (yeast GPS) (PSI 1-4); higher = more stable; sorted into four equal gates, so the index is relative within each strain
Outline: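 The protein stability index of a peptide was calculated by multiplying its read frequency in each gate by that gate's number and adding the products. The peptides were tiled 17-residue stretches of yeast proteins, fused downstream of GFP on a Cherry-expressing plasmid and carried in yeast as a pooled library. Mid-log cultures in leucine-free medium were sorted into four equal gates by GFP/Cherry ratio, and each gate's plasmids were PCR-amplified and Illumina-sequenced.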

| Sequence | protein stability index (doa10∆) | protein stability index (pdr5∆) | protein stability index (san1∆) | protein stability index (ubr1∆) |
| --- | --- | --- | --- | --- |
| ANVFRLENQKDLVIVDE [MTW1] | 3.49 ± 0.12 | 3.36 ± 0.15 | 3.4 ± 0.091 | 3.43 ± 0.074 |
| WTVLFRKHHKKGITEEV [RPL24A] | 3.08 ± 0.12 | 2.1 ± 0.13 | 1.82 ± 0.15 | 2.64 ± 0.079 |
| TSAGIMDHEEARRKHVS [RPS22A] | 2.87 ± 0.3 | 2.73 ± 0.23 | 2.87 ± 0.24 | 2.62 ± 0.15 |
| NLKYLDNSNVMTVKLES [RGR1] | 2.23 ± 0.18 | 1.87 ± 0.11 | 2.04 ± 0.19 | 2.66 ± 0.12 |
| SFLEKPKFAIQDNHHIT [YMR129W/POM152] | 2.89 ± 0.074 | 2.81 ± 0.081 | 2.81 ± 0.051 | 2.76 ± 0.089 |
| SLNFIPITASTSRVFAK [YML103C/NUP188] |  | 1.58 ± 0.28 | 2.06 ± 0.26 |  |
| EEARRKHVSGKILGFVY [RPS22A] | 2.82 ± 0.2 | 2.67 ± 0.18 | 2.97 ± 0.16 | 2.9 ± 0.097 |
| ETPSRLLLSPDQWYCID [ITC1] | 2.8 ± 0.062 | 3.21 ± 0.085 | 3.16 ± 0.075 | 2.81 ± 0.051 |
| EVVQTGAKNIEITVVKP [PRE6] | 3.24 ± 0.098 | 3.3 ± 0.093 | 3.08 ± 0.052 | 3.04 ± 0.087 |
| ARDLATMTYEEVAKRLV [FAS1] | 2.94 ± 0.11 | 3.3 ± 0.082 | 3.12 ± 0.13 | 3.02 ± 0.073 |
| ARKSKEEREAAASKVKL [RPC53] | 3.16 ± 0.22 |  |  |  |
| PFGAKSTKSNKAKNPLT [RPL8B] | 3.38 ± 0.094 | 3.1 ± 0.067 | 2.98 ± 0.061 | 2.93 ± 0.091 |
| KGTEASNDIIDKPYLLR [YDL116W/NUP84] | 3.33 ± 0.09 | 3.23 ± 0.078 | 3.34 ± 0.1 | 2.76 ± 0.11 |
| LHKFLTKWGLINYQVDS [SWI3] | 2.46 ± 0.17 | 2.71 ± 0.12 | 2.03 ± 0.078 | 2.12 ± 0.072 |
| NSMDMVDGMAKVPIGLI [RGR1] | 3.4 ± 0.12 | 3.37 ± 0.072 | 2.99 ± 0.15 | 3.23 ± 0.073 |
| AIGYEPLSLTHRDKNKM [DIS3] | 2.83 ± 0.058 | 2.9 ± 0.061 | 2.88 ± 0.063 | 2.93 ± 0.042 |
| ISVGLYDTTPLLDTNSL [SKI6] | 2.57 ± 0.074 | 2.88 ± 0.13 | 2.48 ± 0.099 | 2.51 ± 0.14 |
| PSTGSNLQQQQQQQIQV [YGR119C/NUP57] |  | 2.55 ± 0.19 |  |  |
| VSQMVAVVGQQIISGNR [RPO31] | 3.2 ± 0.14 | 3.14 ± 0.15 | 3 ± 0.094 | 2.68 ± 0.13 |
| DTTFSDFKEVEDFLHFI [SRB4] | 2.83 ± 0.06 | 2.09 ± 0.05 | 2.23 ± 0.064 | 2.56 ± 0.048 |
| ETGKLLSGLAQRKTNGA [BRN1] |  |  | 2.97 ± 0.11 |  |
| ESEEAETKDIRKQIQLL [SRB4] | 2.53 ± 0.081 | 2.94 ± 0.086 | 2.5 ± 0.062 | 2.71 ± 0.075 |
| VLGIKVKIMRDPAKSRT [RPS3] | 2.67 ± 0.067 | 2.78 ± 0.054 | 2.98 ± 0.049 | 3.16 ± 0.037 |
| ITSLYALIRRDFTLIPR [CDC53] | 2.95 ± 0.08 | 1.28 ± 0.071 | 1.18 ± 0.15 | 1.41 ± 0.031 |
| GKGLQSAIDVLDPLTKD [RPN2] | 2.28 ± 0.069 | 2.56 ± 0.079 | 2.44 ± 0.1 | 2.81 ± 0.069 |
| AKKTIQNPLNKSQNTAL [SIR4] | 3.02 ± 0.058 | 3.1 ± 0.054 | 2.99 ± 0.042 | 3.08 ± 0.045 |
| KKVTAFVPNDGCLNFVD [RPS23A] | 2.88 ± 0.054 | 3.17 ± 0.046 | 3.11 ± 0.032 | 2.85 ± 0.035 |
| VIYRGPEPSHIDQVMMS [RET1] | 3.01 ± 0.085 | 3.23 ± 0.13 | 3.19 ± 0.067 | 2.77 ± 0.088 |
| KTKYILQRPTATDEESV [CSN12] | 3.18 ± 0.084 | 3.12 ± 0.081 | 2.95 ± 0.17 | 3.14 ± 0.2 |
